Data as given in article PMC5460035 (Nature Communications, 2017).

Target: T1, RUVBL2-His (human, UniProt Q9Y230 1-463)
T1 construct: RUVBL2, AAA+ ATPase; cDNA amplified from a Mammalian Gene Collection clone, cloned into pET-23a+; also called polyhistidine-tagged RUVBL2; source: E. coli One Shot BL21 Star DE3, purified (Ni-NTA agarose)
Test: pull-down; 500 ng GST-tagged protein with 100 ng His-tagged protein and glutathione beads in 1 ml binding buffer (50 mM NaCl, 50 mM HEPES-KOH pH 7.6, 0.1% NP-40), 2 h at 4 °C; in presence of ATP, ADP or γ-S-ATP; immunoblot
Details: both partners purified

T1 sequence (Q9Y230 whole entry): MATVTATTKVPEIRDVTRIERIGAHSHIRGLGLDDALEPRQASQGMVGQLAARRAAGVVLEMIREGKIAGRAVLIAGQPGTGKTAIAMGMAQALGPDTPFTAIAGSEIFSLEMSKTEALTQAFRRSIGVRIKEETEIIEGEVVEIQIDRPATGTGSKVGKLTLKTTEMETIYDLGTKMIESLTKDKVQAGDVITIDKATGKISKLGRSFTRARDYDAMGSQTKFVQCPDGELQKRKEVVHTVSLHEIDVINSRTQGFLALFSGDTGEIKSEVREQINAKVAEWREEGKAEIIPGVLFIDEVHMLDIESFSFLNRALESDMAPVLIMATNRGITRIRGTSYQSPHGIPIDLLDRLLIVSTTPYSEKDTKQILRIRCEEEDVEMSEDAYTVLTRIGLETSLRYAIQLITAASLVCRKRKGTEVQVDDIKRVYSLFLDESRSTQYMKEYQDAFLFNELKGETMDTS

binding result: binds
B1: GST-ZNHIT2 (full-length) (natural protein, human, UniProt Q9UHR6 1-403, looked up)
chain: MEPAGPCGFCPAGEVQPARYTCPRCNAPYCSLRCYRTHGTCAENFYRDQVLGELRGCSAPPSRLASALRRLRQQRETEDEPGEAGLSSGPAPGGLSGLWERLAPGEKAAFERLLSRGEAGRLLPPWRPWWWNRGAGPQLLEELDNAPGSDAAELELAPARTPPDSVKDASAAEPAAAERVLGDVPGACTPVVPTRIPAIVSLSRGPVSPLVRFQLPNVLFAYAHTLALYHGGDDALLSDFCATLLGVSGALGAQQVFASAEEALQAAAHVLEAGEHPPGPLGTRGAMHEVARILLGEGPTNQKGYTLAALGDLAQTLGRARKQAVAREERDHLYRARKKCQFLLAWTNENEAALTPLALDCARAHQAHAVVAEEVAALTGELERLWGGPVPPAPRTLIEELPS
notes: ZNHIT2, human ZNHIT family member; cDNA amplified from a Mammalian Gene Collection clone, cloned into pGEX-4T-1; also called GST-tagged ZNHIT2; source: E. coli One Shot BL21 Star DE3, purified (Glutathione Sepharose 4B)
